What was measured:
[1] = biological target: T1, human GFRα3 expressed with a C-terminal hFc tag (human); assay: BLI Octet, antigen on anti-hFc tips, 100 ug/mL Ab
T1 construct: also called hGFRα3-hFc
Protocol: (§1) The ability of anti-GFRα3 antibodies to bind to GDNF-family receptors was assessed using an Octet Red biosensor (Fortebio, Inc.). Antibodies were tested for binding to either human GFRα1 expressed with a C-terminal human Fc tag and a hexahistidine tag (hGFRα1-hFc-6His, R&D Systems #714-GR), human GFRα1 expressed with only a C-terminal human Fc tag (hGFRα1-hFc; SEQ ID: 376), human GFRα2 expressed with a C-terminal human Fc tag and a hexahistidine tag (hGFRα2-hFc-6His, R&D Systems #613-FR), human GFRα3 expressed with a C-terminal human Fc tag (hGFRα3-hFc, SEQ ID:371), or an irrelevant human Fc tagged protein. Antigens were captured onto anti-human Fc sensor tips from 10 ug/mL solutions for 5 minutes. The coated sensor tips were then blocked with a 100 ug/mL solution of irrelevant human Fc antibodies for 5 minutes. Blocked sensor tips were then submerged into wells containing […] of each anti-GFRα3 antibody or buffer alone for 10 minutes. The experiment was performed at 25° C. with a flow rate of 1000 rpm using HBST+BSA buffer (10 mM HEPES, 150 mM NaCl, 3 mM EDTA, 0.05% w/v Surfactant P20, 0.1 mg/mL BSA, pH 7.4). The binding response (measured in units of nm) at each step of the experiment was monitored and recorded.

[2] = biological target: T2, human GFRα1 expressed with a C-terminal human Fc tag and a hexahistidine tag (human, UniProt P56159 25-429, limits assumed); assay: BLI Octet, antigen on anti-hFc tips, 100 ug/mL Ab
T2 construct: bought protein; also called hGFRα1-hFc-6His; hGFRα1-hFc-6his
T2 sequence (looked up): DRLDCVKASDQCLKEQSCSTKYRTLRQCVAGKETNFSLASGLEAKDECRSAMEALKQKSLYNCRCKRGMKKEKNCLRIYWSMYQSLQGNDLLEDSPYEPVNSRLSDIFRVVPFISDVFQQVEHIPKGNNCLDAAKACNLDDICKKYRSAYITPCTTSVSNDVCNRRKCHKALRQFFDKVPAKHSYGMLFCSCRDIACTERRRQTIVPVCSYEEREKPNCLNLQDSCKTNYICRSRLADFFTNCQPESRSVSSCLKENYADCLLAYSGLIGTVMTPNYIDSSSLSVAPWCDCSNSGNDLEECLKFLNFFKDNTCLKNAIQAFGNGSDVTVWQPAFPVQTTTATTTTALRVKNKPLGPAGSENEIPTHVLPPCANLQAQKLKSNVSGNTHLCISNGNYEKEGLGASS
Protocol: as §1

[3] = biological target: T3, irrelevant human Fc tagged protein; assay: BLI Octet, antigen on anti-hFc tips, 100 ug/mL Ab
T3 construct: negative control antigen; also called Irrelevant hFc tagged protein
Protocol: as §1

[4] = biological target: T4, human GFRα1 expressed with only a C-terminal human Fc tag (human); assay: BLI Octet, antigen on anti-hFc tips, 100 ug/mL Ab
T4 construct: also called hGFRα1-hFc
Protocol: as §1
Target sequence in this assay (chain, as listed by the source limits assumed): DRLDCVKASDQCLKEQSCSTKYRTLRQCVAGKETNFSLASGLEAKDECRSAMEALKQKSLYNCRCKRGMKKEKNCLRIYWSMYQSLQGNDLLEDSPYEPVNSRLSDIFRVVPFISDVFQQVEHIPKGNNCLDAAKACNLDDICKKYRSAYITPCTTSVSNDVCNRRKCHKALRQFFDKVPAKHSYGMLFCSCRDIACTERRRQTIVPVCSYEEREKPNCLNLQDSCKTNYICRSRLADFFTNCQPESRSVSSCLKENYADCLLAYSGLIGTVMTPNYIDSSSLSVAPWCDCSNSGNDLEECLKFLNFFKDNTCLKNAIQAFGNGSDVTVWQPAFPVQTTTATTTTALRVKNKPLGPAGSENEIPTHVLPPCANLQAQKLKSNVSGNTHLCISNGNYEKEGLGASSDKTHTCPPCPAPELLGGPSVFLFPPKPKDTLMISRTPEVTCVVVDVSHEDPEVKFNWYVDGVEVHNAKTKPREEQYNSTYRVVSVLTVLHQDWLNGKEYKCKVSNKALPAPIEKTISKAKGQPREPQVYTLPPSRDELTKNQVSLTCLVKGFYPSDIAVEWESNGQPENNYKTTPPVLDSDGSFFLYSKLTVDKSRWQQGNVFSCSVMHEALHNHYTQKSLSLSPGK

[5] = biological target: T1, human GFRα3 expressed with a C-terminal …; assay: blocking ELISA 1, hGFRα3-hFc to coated hARTEMIN-mmH
Protocol: A constant amount of human GFRα3 fused with a C-terminal human Fc tag (hGFRα3-hFc; SEQ ID:371) at 120 pM was pre-mixed with varying amounts of antibodies, ranging from 0 to ˜10 nM in serial dilutions, followed by an 1 hour incubation at room temperature (RT) to allow antibody-hGFRα3-hFc binding to reach equilibrium. The equilibrated sample solutions were then transferred to the hARTEMIN-mmH-coated plate. […] Absorbance was recorded at 450 nm on a Victor X5 plate reader (Perkin Elmer) to determine the amount of free hGFRα3-hFc in the pre-equilibrated hGFRα3-hFc-antibody solutions that was able to bind to the plate coated with hARTEMIN-mmH. IC₅₀ values, defined as the concentration of antibody required to reduce the signal from a constant concentration of hGFRα3-hFc by 50%, were calculated from the data using Prism software from GraphPad. The absorbance measured at the constant amount of 120 pM hGFRα3-hFc in the absence of anti-GFRα3 antibody is defined as 0% blocking and the absorbance with no added hGFRα3-hFc is defined as 100% blocking. The observed absorbance in the wells containing the highest antibody concentration was used to calculate the maximum blocking percent shown in the table.

[6] = biological target: T5, human GFRα2 expressed with a C-terminal human Fc tag and a hexahistidine tag (human, UniProt O00451 22-441, limits assumed); assay: BLI Octet, antigen captured on anti-hFc tips
T5 construct: bought protein; also called hGFRα2-hFc-6His; hGFRα2-hFc-6his
T5 sequence (looked up): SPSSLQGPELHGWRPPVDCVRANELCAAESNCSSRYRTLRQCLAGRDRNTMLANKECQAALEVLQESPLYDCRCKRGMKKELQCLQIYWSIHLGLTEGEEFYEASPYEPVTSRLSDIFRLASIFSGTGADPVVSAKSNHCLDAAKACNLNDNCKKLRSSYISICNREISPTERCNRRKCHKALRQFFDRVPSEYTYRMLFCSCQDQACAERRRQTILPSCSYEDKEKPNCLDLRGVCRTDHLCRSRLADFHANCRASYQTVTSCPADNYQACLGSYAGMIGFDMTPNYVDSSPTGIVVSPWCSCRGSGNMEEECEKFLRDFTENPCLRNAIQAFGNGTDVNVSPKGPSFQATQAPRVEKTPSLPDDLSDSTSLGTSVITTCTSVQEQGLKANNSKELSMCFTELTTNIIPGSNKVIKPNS
Protocol: as §1

[7] = biological target: T4, human GFRα1 expressed with only a …; assay: BLI Octet, antigen captured on anti-hFc tips
Protocol: as §1

[8] = biological target: T6, cynomolgus GFRα3 on HEK293/MfGFRα3/MfRet/SRE-Luc cells (cynomolgus, UniProt O60609 1-400 (human entry), limits assumed); assay: cell-based or functional assay
T6 chain: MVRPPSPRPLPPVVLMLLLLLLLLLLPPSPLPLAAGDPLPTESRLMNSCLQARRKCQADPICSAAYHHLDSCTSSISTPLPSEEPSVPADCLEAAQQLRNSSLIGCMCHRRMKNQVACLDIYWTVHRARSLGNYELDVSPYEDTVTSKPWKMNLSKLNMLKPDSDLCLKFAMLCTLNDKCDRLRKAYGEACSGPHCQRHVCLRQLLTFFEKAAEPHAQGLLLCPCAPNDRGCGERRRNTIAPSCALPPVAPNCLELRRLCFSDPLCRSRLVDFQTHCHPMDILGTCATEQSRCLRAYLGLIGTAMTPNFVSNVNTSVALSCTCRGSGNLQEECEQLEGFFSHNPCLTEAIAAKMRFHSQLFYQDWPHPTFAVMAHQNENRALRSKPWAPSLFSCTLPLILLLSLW

T1 sequence (chain, as listed by the source limits assumed): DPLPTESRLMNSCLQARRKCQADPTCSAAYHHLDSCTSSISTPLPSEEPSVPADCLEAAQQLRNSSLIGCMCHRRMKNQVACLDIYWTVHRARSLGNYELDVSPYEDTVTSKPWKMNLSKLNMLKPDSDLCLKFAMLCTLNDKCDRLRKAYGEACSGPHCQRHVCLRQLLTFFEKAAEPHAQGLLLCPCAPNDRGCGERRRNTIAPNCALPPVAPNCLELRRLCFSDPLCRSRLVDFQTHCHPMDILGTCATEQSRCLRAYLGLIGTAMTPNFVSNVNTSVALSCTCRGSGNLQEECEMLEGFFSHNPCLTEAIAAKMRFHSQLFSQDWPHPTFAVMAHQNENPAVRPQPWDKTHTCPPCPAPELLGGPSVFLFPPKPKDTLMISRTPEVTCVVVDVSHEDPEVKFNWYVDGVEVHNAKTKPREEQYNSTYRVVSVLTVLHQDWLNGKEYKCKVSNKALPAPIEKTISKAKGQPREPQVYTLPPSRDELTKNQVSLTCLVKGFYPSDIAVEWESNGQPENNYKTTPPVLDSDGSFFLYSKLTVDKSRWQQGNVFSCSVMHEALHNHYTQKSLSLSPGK

Binder	Bound (nm) [1] [nm]	Bound (nm) [2] [nm]	Bound (nm) [3] [nm]	Bound (nm) [4] [nm]	% max blocking [5] [%]	IC50 [5] [nM]	binding result [6]	binding result [7]	IC50 (SRE-luc, HEK293/MfGFRα3/MfRET cells, 500 pM human ARTEMIN-MMH) [8] [nM]
H4H2352S (antibody, human IgG4, V domains shown, human IgG4 Fc (H4H); also called H4H2352S-1) VH: EVQLVQSGAEVKKPGASVKVSCKASGYTFTNYGITWVRQAPGQGLEWMGWISAYNGNTGYAQKFQGRVTMTTDTSTSTAYMELRSLRSDDTAVYYCAREDYDFWRAFDIWGQGTMVTVSS VL: EIVLTQSPGTLSLSPGERATLSCRASQSVSSTYLAWLQQKPGQAPRLLIYGASSRATGIPDRFSGSGSGTDFTLTINRLEPEDFAVYYCQQYAYSPYTFGQGTKLEIK	1.25	0.03	0.03	0.02	51	0.0658	no binding (tested: 100 ug/mL)	no binding (tested: 100 ug/mL)	1.3
H4H2292S (antibody, human IgG4, V domains shown, human IgG4 Fc (H4H)) VH: EVQLVESGGGVVQPGRSLRLSCAASGFTFSSYGMHWVRQAPGKGLEWVSFIWYDGSNKYYADSVKGRFTISRDNSKNTLYLQMNSLTAEDTAVYYCARRGILTGTTAFDIWGQGTMVTVSS VL: DIQMTQSPSSLSASVGDRVTITCRASQSISSYLNWYQQKPGKAPKLLIYAASSLQSGVPSRFSGSGSGTDFTLTIRSLIPEDFATYYCQQTYNTPFTFGPGTKVEIK	1.04	0.03	0.02	0.05	89	0.723	no binding (tested: 100 ug/mL)	no binding (tested: 100 ug/mL)	1.5
